{
  "source": "patent US20230272055A1",
  "about": "(Incyte, published 2023)",
  "data": [
    {"biological_target": "T1, Recombinant MBP-mutCALR Type 1 fusion protein (human)", "T1 construct": "custom made at Cepter; also called recombinant mutCALR protein", "assay": "SPR, IgG captured, 1:1 fit, Exp. 1", "description": "Experiment 1: Recombinant MBP-mutCALR Type 1 fusion protein was custom made at Cepter (cepterbiopartners.com). Data for the interaction of antibodies with recombinant MBP-mutCALR Type 1 fusion protein were collected at 25° C. on a Biacore 8K instrument (Cytiva, Marlborough, Mass.), and all reagents were obtained from Cytiva unless otherwise specified. The experiments were conducted using Tris-buffered saline (pH 7.2), 0.005% Surfactant P20, 1 mM CaCl₂) as running buffer. To prepare the capture surfaces, anti-human IgG (Fc) antibodies (Product #29234600) was amine-coupled onto a CM4 chip (Product #BR100534) under standard conditions using an Amine Coupling Kit (Product #BR100050). […] The kinetics parameters were obtained by applying 1:1 binding model to fit the data from multiple-cycle injection experiments using Biacore Insight Evaluation software.", "units": {"Kd": "nM", "koff": "s⁻¹", "kon": "M⁻¹ s⁻¹"}, "values": [
      {"binder": "anti-mutCALR antibody clone 23 (antibody, human IgG1, lambda, V domains shown, human IgG1) VH: EVQLVQSGAEVKKPGASVKVSCKVSGYTLTELSMQWVRQAPGKGLEWMGGFDPDDGETMYAEKFQGRLTVTEDTSTDTVYMELRSLTSEDTALYFCATSPGYDFFDYWGQGTLVTVSS VL: SYVLTQPPSVSVAPGQTARITCGGNNIGIKSVHWYQQKPGQAPVLVVYDDSDRPSGIPERFSGSNSGNTATLTINRVEAGDEADYYCQVWDSSNDLLIFGGGTKLTVLG", "Kd": 4.37, "koff": 0.00343, "kon": 785000},
      {"binder": "anti-mutCALR antibody clone 24 (antibody, human IgG1, lambda, V domains shown, human IgG1) VH: EVQLVQSGAEVKKPGASVKVSCKVSGYTLTELSMQWVRQAPGKGLEWMGGFDPDDGETMYAEKLQGRLTVTEDTSTDTVYMELRSLTSEDTALYFCATSPGYDFFDYWGQGTLVTVSS VL: SYVLTQPPSVSVAPGKTARITCGGNNIGSKSVHWYQQKPGQAPVLVVYDDSDRPSGIPERFSGSNSGNTATLTINRVEAGDEADYYCQVWDSSNDLLIFGGGTKLTVLG", "Kd": 7.62, "koff": 0.00199, "kon": 261000},
      {"binder": "anti-mutCALR antibody clone 25 (antibody, human IgG1, lambda, V domains shown, human IgG1) VH: EVQLVQSGAEVKKPGASVKVSCKVSGYTLTELSMQWVRQAPGKGLEWMGGFDPDDGETMYAEKFQGRLTVTEDTSTDTVYMELRSLTSEDTALYFCATSPGYDFFDYWGQGTLVTVSS VL: SYELTQPPSVAVAPGQTARITCGGNNIGRKAVHWYQQKPGQAPVLVVYDDSDRPSGIPERFSGSNSGNTATLTINRVEAGDEADYYCQVWDSSNDLLIFGGGTKLTVLG", "Kd": 6.64, "koff": 0.00389, "kon": 585000},
      {"binder": "anti-mutCALR antibody clone 26 (antibody, human IgG1, lambda, V domains shown, human IgG1) VH: EVQLVQSGAEVKKPGASVKVSCKVSGYTLTELSMQWVRQAPGKGLEWMGGFDPDDGETMYAEKFQGRLTVTEDTSTDTVYMELRSLTSEDTALYFCATSPGYDFFDYWGQGTLVTVSS VL: SYVLTQPPSVSVAPGQTARITCGGNNIGSKSVHWYQQKPGQAPVLVVYDDSDRPSGIPERFSGSNSGNTATLTISRVEAGDEADYYCQVWDSSIDHLIFGGGTKVTVLG", "Kd": 9.84, "koff": 0.00471, "kon": 478000},
      {"binder": "anti-mutCALR antibody clone 27 (antibody, human IgG1, lambda, V domains shown, human IgG1) VH: EVQLVQSGAEVKKPGASVKVSCKVSGYTLTELSMQWVRQAPGKGLEWMGGFDPDDGETMYAEKFQGRLTVTEDTSTDTVYMELRSLTSEDTALYFCATSPGYDFFDYWGQGTLVTVSS VL: SYVLTQPPSVSVAPGQTARITCGGNNIGIKSVHWYQQKPGQAPVLVVYDDRDRPSGIPERFSGSNSGNTATLTINRVEAGDEADYYCQVWDSSNDLLIFGGGTKLTVLG", "Kd": 9.63, "koff": 0.00366, "kon": 380000},
      {"binder": "anti-mutCALR antibody clone 28 (antibody, human IgG1, lambda, V domains shown, human IgG1) VH: EVQLVQSGAEVKKPGASVKVSCKVSGYTLTELSMQWVRQAPGKGLEWMGGFDPDDGETMYAEKFQGRLTVTEDTSTDTVYMELRSLTSEDTALYFCATSPGYDFFDYWGQGTLVTVSS VL: SYELTQPPSVSVAPGQTARITCGGNNIGSKSVHWYQQKPGQAPVLVVYDDSDRPSGIPERFSGSNSGNTATLTISRVEAGDEADYYCQVWDADSDQLIFGGGTKLTVLG", "Kd": 19.5, "koff": 0.00897, "kon": 460000},
      {"binder": "anti-mutCALR antibody clone 29 (antibody, human IgG1, lambda, V domains shown, human IgG1) VH: EVQLVQSGAEVKKPGASVKVSCKVSGYTLTELSMQWVRQAPGKGLEWMGGFDPDDGETMYAEKFQGRLTVTEDTSTDTVYMELRSLTSEDTALYFCATSPGYDFFDYWGQGTLVTVSS VL: SYVLTQPPSVSVAPGKTARITCGGNNIGSKSVHWYQQKPGQAPVLVVYDDSDRPSGIPERFSGSNSGNTATLTISRVEAGDEADYYCQVWDSSSDLLIFGGGAKLTVLG", "Kd": 8.16, "koff": 0.00561, "kon": 688000},
      {"binder": "anti-mutCALR antibody clone 30 (antibody, human IgG1, lambda, V domains shown, human IgG1) VH: EVQLVQSGAEVKKPGASVKVSCKVSGYTLTELSMQWVRQAPGKGLEWMGGFDPDDGETMYAEKFQGRLTVTEDTSTDTVYMELRSLTSEDTALYFCATSPGYDFFDYWGQGTLVTVSS VL: SYVLTQPPSVSVAPGKTATITCGGNNIGTKSVHWYQQKPGQAPVLVVYDDSDRPSGIPERFSGSNSGNTATLTINRVEAGDEADYYCQVWDSSNDLLIFGGGTKLTVLG", "Kd": 12.8, "koff": 0.00295, "kon": 231000}
    ]}
  ]
}
